Test results: patent publication US20090098568A1

Target: cyclophilin A, N-terminally His- and FLAG-tagged fusion protein (UniProt P62937)
Experiment: SPR (Biacore S51); 1 uM cyclosporin A injected for 1.5 minutes over Cyph immobilized (approx. 3,400 RU) on an NTA sensor chip

UniProt P62937, sequence (P62937 other isoform, or with tags, fused parts or gaps limits assumed): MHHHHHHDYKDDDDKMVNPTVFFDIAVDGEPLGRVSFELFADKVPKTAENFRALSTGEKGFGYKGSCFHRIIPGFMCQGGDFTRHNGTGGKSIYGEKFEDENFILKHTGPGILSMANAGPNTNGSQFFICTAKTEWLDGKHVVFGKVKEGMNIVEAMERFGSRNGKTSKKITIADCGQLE

response (RU): 43 RU
Substance: Cyclosporin A (peptide)
